In IntAct's records for PubMed 30245403:

Target: T1, prdx2_human PRDX2 (UniProt P32119)
T1 sequence: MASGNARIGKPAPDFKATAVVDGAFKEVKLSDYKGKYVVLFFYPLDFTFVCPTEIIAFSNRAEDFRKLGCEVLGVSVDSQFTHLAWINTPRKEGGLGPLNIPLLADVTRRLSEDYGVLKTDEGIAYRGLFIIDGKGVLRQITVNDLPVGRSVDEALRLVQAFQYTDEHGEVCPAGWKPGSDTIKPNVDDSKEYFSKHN

Substance	effect of a mutation on the interaction
"DNA (cytosine-5)-methyltransferase 3A" (Homo sapiens) (from UniProt Q9Y6K1) R882C	with no effect
"DNA (cytosine-5)-methyltransferase 3A" (Homo sapiens) (from UniProt Q9Y6K1) R882H	increasing interaction strength
